This note sets out measurements from US20200017592A1.

Where two headings read alike, the source gives them in different places.

For test [1], the target named is full-length human IL-36R on cells (human) (UniProt Q9HB29).
Test [2] has the same target. The source holds these as a separate data set.
The target is the same in test [3]. Nature of the test: cell-based or functional assay.
Test [4] concerns the target Macaca fascicularis IL-36R on cells (Macaca fascicularis). Kind of test: cell-based or functional assay.
For test [5], the target named is full-length human IL-36R on cells (human) (UniProt Q9HB29). This is another data set of the same source.
For test [6] the target is unchanged. This is another data set of the same source.
Test [7] deals with T1, human IL-36R (IL1RL2) on primary human cells (human) (UniProt Q9HB29).
T1 sequence (looked up): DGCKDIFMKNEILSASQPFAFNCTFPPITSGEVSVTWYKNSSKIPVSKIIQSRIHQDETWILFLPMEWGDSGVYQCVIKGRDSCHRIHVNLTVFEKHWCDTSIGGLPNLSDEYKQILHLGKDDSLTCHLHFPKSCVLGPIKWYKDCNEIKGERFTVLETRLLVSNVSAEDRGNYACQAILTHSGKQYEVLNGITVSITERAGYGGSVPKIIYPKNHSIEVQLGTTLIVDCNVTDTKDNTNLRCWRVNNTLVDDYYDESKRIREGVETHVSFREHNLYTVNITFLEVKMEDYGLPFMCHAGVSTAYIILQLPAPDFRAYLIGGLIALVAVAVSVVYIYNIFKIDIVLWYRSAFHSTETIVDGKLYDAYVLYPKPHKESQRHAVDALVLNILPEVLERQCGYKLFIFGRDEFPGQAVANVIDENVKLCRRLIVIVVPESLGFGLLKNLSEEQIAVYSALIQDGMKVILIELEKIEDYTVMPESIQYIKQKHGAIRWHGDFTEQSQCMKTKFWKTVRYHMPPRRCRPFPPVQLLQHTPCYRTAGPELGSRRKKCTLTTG
Nature of the test: cell-based or functional assay.

Macaca fascicularis IL-36R on cells (Macaca fascicularis), sequence (chain, as listed by the source): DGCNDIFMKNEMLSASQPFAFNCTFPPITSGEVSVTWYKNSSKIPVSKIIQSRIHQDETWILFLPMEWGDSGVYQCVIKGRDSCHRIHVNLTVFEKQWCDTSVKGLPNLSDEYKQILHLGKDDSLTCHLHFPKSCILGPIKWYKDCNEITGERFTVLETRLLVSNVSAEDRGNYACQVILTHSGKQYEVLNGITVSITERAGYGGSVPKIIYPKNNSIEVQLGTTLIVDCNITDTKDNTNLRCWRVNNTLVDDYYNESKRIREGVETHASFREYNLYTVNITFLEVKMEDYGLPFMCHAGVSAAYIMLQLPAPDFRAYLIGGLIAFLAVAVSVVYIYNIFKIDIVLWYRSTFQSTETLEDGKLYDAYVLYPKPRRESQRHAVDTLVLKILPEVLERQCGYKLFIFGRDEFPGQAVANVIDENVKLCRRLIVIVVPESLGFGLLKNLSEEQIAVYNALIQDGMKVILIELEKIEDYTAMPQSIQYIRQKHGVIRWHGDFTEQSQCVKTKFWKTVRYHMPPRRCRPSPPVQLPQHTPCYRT

On to “human IL-36α (from UniProt Q9UHA7 6-158) (ligand)”, for which, in test [1], the EC50 (read off the curve) of hIL36α, NFκB-luciferase RLU, in the presence of 0.1 nM REGN6489 amounted to 0.04 nM; the EC50 (read off the curve) of hIL36α, NFκB-luciferase RLU, in the presence of 0.3 nM REGN6489 is 0.2 nM; the EC50 (read off the curve) of hIL36α, NFκB-luciferase RLU, in the presence of 1 nM REGN6489 stood at 0.6 nM; the EC50 (read off the curve) of hIL36α, NFκB-luciferase RLU, in the presence of 3 nM REGN6489 came out at 2 nM. Further, in test [1], the EC50 (read off the curve) of hIL36α, NFκB-luciferase RLU, in the presence of 9 nM REGN6489 came to 5 nM and the EC50 (read off the curve) of hIL36α, NFκB-luciferase RLU, no antibody is 0.02 nM. Also, in test [2], the EC50 (read off the curve) of hIL36α, NFκB-luciferase RLU, in the presence of 0.3 nM REGN6490 came to 0.05 nM; the EC50 (read off the curve) of hIL36α, NFκB-luciferase RLU, in the presence of 1 nM REGN6490 amounted to 0.2 nM; the EC50 (read off the curve) of hIL36α, NFκB-luciferase RLU, in the presence of 3 nM REGN6490 was determined as 0.7 nM; the EC50 (read off the curve) of hIL36α, NFκB-luciferase RLU, in the presence of 9 nM REGN6490 came out at 2 nM. Moreover, the EC50, NFκB-luciferase, HEK293/NFκB-luc/hIL-36R cells in test [3] was 0.012 nM. Further, the EC50, NFκB-luciferase, HEK293/NFκB-luc/MfIL-36R cells in test [4] came out at 0.17 nM.

As to “human IL-36γ (from UniProt Q9NZH8 18-169) (ligand)”, in test [5], the EC50 (read off the curve) of hIL36γ, NFκB-luciferase RLU, in the presence of 0.1 nM REGN6489 worked out at 0.002 nM; the EC50 (read off the curve) of hIL36γ, NFκB-luciferase RLU, in the presence of 0.3 nM REGN6489 stood at 0.008 nM; the EC50 (read off the curve) of hIL36γ, NFκB-luciferase RLU, in the presence of 1 nM REGN6489 was found to be 0.03 nM; the EC50 (read off the curve) of hIL36γ, NFκB-luciferase RLU, in the presence of 3 nM REGN6489 was determined as 0.1 nM. Moreover, in test [5], the EC50 (read off the curve) of hIL36γ, NFκB-luciferase RLU, in the presence of 9 nM REGN6489 amounted to 0.3 nM and the EC50 (read off the curve) of hIL36γ, NFκB-luciferase RLU, no antibody worked out at 0.001 nM. In test [6], the EC50 (read off the curve) of hIL36γ, NFκB-luciferase RLU, in the presence of 0.3 nM REGN6490 was found to be 0.004 nM; the EC50 (read off the curve) of hIL36γ, NFκB-luciferase RLU, in the presence of 1 nM REGN6490 was found to be 0.02 nM; the EC50 (read off the curve) of hIL36γ, NFκB-luciferase RLU, in the presence of 3 nM REGN6490 stood at 0.06 nM; the EC50 (read off the curve) of hIL36γ, NFκB-luciferase RLU, in the presence of 9 nM REGN6490 was 0.2 nM. This substance also displayed an EC50 (read off the curve) of hIL36γ, NFκB-luciferase RLU, no antibody in test [6] of 0.003 nM. For the same substance, in test [3], the EC50, NFκB-luciferase, HEK293/NFκB-luc/hIL-36R cells was found to be 0.0084 nM. For the same substance, the EC50, NFκB-luciferase, HEK293/NFκB-luc/MfIL-36R cells in test [4] stood at 0.062 nM.

On to “rhIL-36α/IL-1F6 [aa6-158] (from UniProt Q9UHA7 6-158) (ligand)”, for which, in test [7], the EC50[M], IL-8 production, Intestinal MyoFibroblasts (InMyoFib), hIL-36α came out at 1.41e-09 M; the EC50[M], IL-8 production, Normal Epidermal Keratinocytes (NHEK), hIL-36α was found to be 1.43e-09 M; the EC50[M], IL-8 production, PB-derived CD14+ Monocytes, hIL-36α was found to be 2.75e-09 M.

As to “rhIL-36γ/IL-1F9 [aa18-169] (from UniProt Q9NZH8 18-169) (ligand)”, in test [7], the EC50[M], IL-8 production, Intestinal MyoFibroblasts (InMyoFib), hIL-36γ amounted to 1.46e-09 M; the EC50[M], IL-8 production, Normal Epidermal Keratinocytes (NHEK), hIL-36γ came to 4e-09 M; the EC50[M], IL-8 production, PB-derived CD14+ Monocytes, hIL-36γ was determined as 2.75e-09 M.
